Source: patent publication US20110300138A1 (published 2011)
One block for each molecule: values may come before it.

Legend:
[1] = target: TSH receptor (full length human TSHR) coated on tubes (human) (UniProt P16473); assay: 125I-TSH binding inhibition read against NIBSC 90/672; 30 ng/mL, in serum
[2] = target: TSH receptor (full length human TSHR) coated on tubes (human) (UniProt P16473); assay: 125I-TSH binding inhibition, TSHR coated tubes; 10 ng/mL, in assay buffer
[3] = target: human TSH receptor (full length) coated on ELISA plate wells (human) (UniProt P16473); assay: TSH-biotin binding inhibition ELISA, TSHR coated wells; 0.001 µg/mL in assay buffer + 100 µg/mL 5B3 IgG
[4] = target: human TSH receptor (full length) coated on ELISA plate wells (human) (UniProt P16473); assay: TSH-biotin binding inhibition ELISA, TSHR coated wells; 0.1 µg/mL in assay buffer + 100 µg/mL 5B3 IgG; negative control MAb
[5] = target: human thyroid stimulating hormone receptor (TSHR), full length (human) (UniProt P16473); assay: 125I-K1-70 Fab (competitor) binding to TSHR coated tubes; negative control MAb 1 µg/mL in assay buffer
[6] = target: TSH receptor (TSHR), full length human, coated on tubes (human) (UniProt P16473); assay: inhibition of 125I-TSH binding to TSHR coated tubes; 100 µg/mL, diluted in assay buffer
[7] = target: human thyroid stimulating hormone receptor (TSHR), full length (human) (UniProt P16473); assay: 125I-K1-70 Fab (competitor) binding to TSHR coated tubes; negative control MAb 10 µg/mL in HBD serum
[8] = target: TSH receptor (TSHR) coated on tubes (human) (UniProt P16473); assay: inhibition of 125I-K1-70 IgG binding to TSHR coated tubes; negative control 0.1 µg/mL in assay buffer
[9] = target: TSH receptor (TSHR) coated on tubes (human) (UniProt P16473); assay: inhibition of 125I-K1-70 IgG binding to TSHR coated tubes; negative control 0.001 µg/mL in HBD serum pool
[10] = target: TSH receptor (TSHR) coated on tubes (human) (UniProt P16473); assay: inhibition of 125I-K1-70 IgG binding to TSHR coated tubes; negative control 0.001 µg/mL in assay buffer
[11] = target: thyroid stimulating hormone receptor (TSHR), full length human TSHR (human) (UniProt P16473); assay: TSH-biotin competition ELISA, TSHR coated wells; 0.1 µg/mL in HBD serum
[12] = target: TSHR (full length) coated on tubes (human) (UniProt P16473); assay: inhibition of 125I-K1-18 Fab (competitor) binding to TSHR coated tubes; test sample 0.01 µg/mL in assay buffer
[13] = target: thyroid stimulating hormone receptor (TSHR), full length human TSHR (human) (UniProt P16473); assay: TSH-biotin competition ELISA, TSHR coated wells; 1 µg/mL in assay buffer
[14] = target: TSHR (thyroid stimulating hormone receptor), full length human (human) (UniProt P16473); assay: competitor ^125I-K1-70 IgG, TSHR coated tubes; 0.1 µg/mL in assay buffer
[15] = target: TSHR (thyroid stimulating hormone receptor), full length human (human) (UniProt P16473); assay: competitor ^125I-K1-70 IgG, TSHR coated tubes; 0.1 µg/mL in HBD
[16] = target: TSHR (full length) coated on tubes (human) (UniProt P16473); assay: inhibition of 125I-K1-18 Fab (competitor) binding to TSHR coated tubes; test sample 1 µg/mL in HBD serum
[17] = target: thyroid stimulating hormone receptor (TSHR), full length human TSHR (human) (UniProt P16473); assay: TSH-biotin competition ELISA, TSHR coated wells; 0.01 µg/mL in HBD serum
[18] = target: TSH receptor (TSHR), full length human, coated on tubes (human) (UniProt P16473); assay: inhibition of 125I-K1-18 IgG binding to TSHR coated tubes; competitor 125I-K1-18 IgG; sample at 0.01 µg/mL in assay buffer
[19] = target: TSHR with Glu251 mutated to Ala (human) (UniProt P16473); assay: cell-based or functional assay
[20] = target: TSHR with Thr257 mutated to Ala (human) (UniProt P16473); assay: cell-based or functional assay
[21] = target: human TSH receptor (full length) coated on ELISA plate wells (human) (UniProt P16473); assay: TSH-biotin binding inhibition ELISA, TSHR coated wells; 10 µg/mL in assay buffer + 100 µg/mL 5B3 IgG
[22] = target: TSH receptor (TSHR), full length human, coated on tubes (human) (UniProt P16473); assay: inhibition of 125I-TSH binding to TSHR coated tubes; 0.001 µg/mL, diluted in assay buffer
[23] = target: human TSH receptor (full length) coated on ELISA plate wells (human) (UniProt P16473); assay: TSH-biotin binding inhibition ELISA, TSHR coated wells; 100 µg/mL in assay buffer + 100 µg/mL 5B3 IgG
[24] = target: TSH receptor (TSHR), full length human, coated on tubes (human) (UniProt P16473); assay: inhibition of 125I-TSH binding to TSHR coated tubes; 100 µg/mL, diluted in assay buffer; remark: listed apart in the source
[25] = target: thyroid stimulating hormone receptor (full length human TSHR) (human) (UniProt P16473); assay: ELISA: inhibition of M22 Fab-peroxidase (competitor) binding to TSHR coated wells; 1 µg/mL, diluted in HBD serum pool
[26] = target: TSH receptor (TSHR), full length human, coated on tubes (human) (UniProt P16473); assay: inhibition of 125I-K1-18 IgG (competitor) binding to TSHR coated tubes; test sample at 100 µg/mL in HBD serum pool
[27] = target: thyroid stimulating hormone receptor (full length human TSHR) (human) (UniProt P16473); assay: ELISA, inhibition of TSH-biotin binding to TSHR coated wells; 0.01 µg/mL, diluted in assay buffer

- units/L [1]: 4.3 units/L
- Inhibition of binding (%) [2]: 26.4%
- % inhibition of TSH-biotin binding [3]: -7.7%
Molecule: M22 IgG (antibody)

- % inhibition of TSH-biotin binding [4]: -6.4%
- Inhibition of binding (%) [5]: -1.7%
- Inhibition of binding (%) [6]: 22.4%
- Inhibition of binding (%) [7]: -5.7%
- Inhibition of binding (%) [8]: 1%
- Inhibition of binding (%) [9]: 3.7%
- Inhibition of binding (%) [10]: -1.5%
Molecule: 5B3 IgG (antibody)

- Inhibition of binding (%) [11]: 39%
- Inhibition of binding (%) [12]: 7.9%
- Inhibition of binding (%) [13]: 81.8%
- Inhibition of binding (%) [14]: 24.8%
- Inhibition of binding (%) [15]: 14.8%
- Inhibition of binding (%) [16]: 64.8%
- Inhibition of binding (%) [17]: 10.1%
- Inhibition of binding (%) [18]: 20.9%
Molecule: 9D33 IgG (antibody)

- Cyclic AMP produced (mean of duplicate), TSH 3 ng/mL [19]: 71.7 pmol/mL
- Mutated/Wild type (%) of cyclic AMP produced, TSH 0.01 ng/mL [19]: 243%
- Mutated/Wild type (%) of cyclic AMP produced, TSH 0.03 ng/mL [19]: 224%
- Mutated/Wild type (%) of cyclic AMP produced, TSH 0.1 ng/mL [19]: 115%
- Mutated/Wild type (%) of cyclic AMP produced, TSH 0.3 ng/mL [19]: 67%
- Mutated/Wild type (%) of cyclic AMP produced, TSH 1 ng/mL [19]: 69%
- Mutated/wild type (%) of cyclic AMP produced; TSH 3 ng/mL [19]: 66%
- Mutated/Wild type (%) of cyclic AMP produced, TSH 0.01 ng/mL [20]: 90%
- Mutated/Wild type (%) of cyclic AMP produced, TSH 0.03 ng/mL [20]: 93%
- Mutated/Wild type (%) of cyclic AMP produced, TSH 0.1 ng/mL [20]: 92%
- Mutated/Wild type (%) of cyclic AMP produced, TSH 0.3 ng/mL [20]: 105%
- Mutated/Wild type (%) of cyclic AMP produced, TSH 1 ng/mL [20]: 94%
- Mutated/wild type (%) of cyclic AMP produced; TSH 3 ng/mL [20]: 86%
Molecule: TSH (ligand)

- % inhibition of TSH-biotin binding [21]: 63.9%
- Inhibition of binding (%) [22]: -11.2%
- % inhibition of TSH-biotin binding [23]: 92.3%
- Inhibition of binding (%) [24]: 92.5%
- Inhibition of binding (%) [25]: 7.8%
- Inhibition of binding (%) [26]: 57.7%
- Inhibition of binding (%) [27]: 7.5%
B1: 5C9 IgG (antibody, from another filing, V domains shown)
VH: EVQLVESGGGLIQPGGSLRLSCAASGFTVSSNYMSWVRQAPGKGLEWVSVTYSGGSTSYADSVKGRFTISRDNSKNTLYLQMNSLRAEDTAVYYCARGGRYCSSISCYARSGCDYWGQGTLVTVSS
VL: AIQMTQSPSSLSASVGDRVTITCRASQSISNYLNWYQQKPGKAPKLLIYAASSLQSGVPSRFSGSGSGTDFTLTISSLQPEDFATYYCQQSYSSPSTTFGQGTKLEIK
